This is an account of results in patent US11426422B2, “SHP2 inhibitors and methods of use thereof” (Research Development Foundation, priority 2018, dated 2022).

One assay concerns the target T1, AP2M1 (residues 160-435) (Homo sapiens, UniProt Q96CW1).
T1 construct: The AP2M1 fragment (residues 160-435) was cloned into a modified pET28a; His6 (N, cleaved yes); made in house; host or cells: E. coli BL21(DE3)
T1 sequence (Q96CW1 160-435): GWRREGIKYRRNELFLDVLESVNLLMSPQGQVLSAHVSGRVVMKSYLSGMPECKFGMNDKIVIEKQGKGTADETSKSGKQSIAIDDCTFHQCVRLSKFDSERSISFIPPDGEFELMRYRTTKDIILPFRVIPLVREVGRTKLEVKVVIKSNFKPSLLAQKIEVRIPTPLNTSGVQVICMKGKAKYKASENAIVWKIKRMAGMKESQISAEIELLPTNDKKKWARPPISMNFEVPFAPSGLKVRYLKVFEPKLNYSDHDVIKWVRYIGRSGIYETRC
Kind of assay: in vitro peptide pull-down of AP2M1 with IRS1 peptides. The note with it: peptide beads pull-down, SDS-PAGE, Coomassie. Format: binding. As for the experimental part: FIGS. 2A-I. The MAPK pathway and SHP2 promote insulin-activated IR endocytosis. (FIG. 2A) HepG2 cells expressing IR-GFP WT were starved, treated with the indicated inhibitors for 2 h, treated without or with 100 nM insulin for 20 min, and stained with anti-GFP (IR; green) and DAPI (blue). See also FIG. 7A for representative images. Quantification of the ratios of PM and IC IR-GFP signals of cells was shown (mean±SD; *p<0.0001). (FIG. 2B) Binding of IRS1 peptides to AP2M1 (residues 160-435). Input and proteins bound to IRS1-peptide beads were analyzed by SDS-PAGE and stained with Coomassie (CBB). The relative band intensities are shown below (mean±SD; n=4 independent experiments). (FIG. 2C) ITC analysis of binding between IRS1 peptides and AP2M1 (residue 160-435), with the Kd indicated. (FIG. 2D) The IRS1 peptides were incubated with active SHP2 for the indicated durations, spotted onto membranes, and detected with the anti-pY612-IRS1 antibody. (FIG. 2E) Quantification of the relative SHP2 activity in FIG. 2D (mean±SD; n=4 independent experiments; *p<0.0001). (FIG. 2F) Model of the regulation of insulin-activated IR endocytosis by a phosphorylation switch on IRS1/2. Insulin-bound IR phosphorylates itself and IRS1/2, and activates the PI3K-AKT and MAPK pathways. SHP2 acts upstream of RAS-RAF and promotes the activation of MAPK pathway. p31^comet binds to the IR-bound MAD2 and blocks IR-AP2 association to prevent premature IR endocytosis. In feedback regulation, activated ERK1/2 phosphorylate S616 and other sites on IRS1. […]
For GST pull-down assays of in vitro translated (IVT) IRS1 proteins, beads bound to GST-AP2M1 or GST were incubated with IVT products diluted in the cell lysis buffer at 4° C. for 2 h. After incubation and washing, proteins bound to beads were eluted with the SDS loading buffer, resolved with SDS-PAGE, and detected with Coomassie staining or immunoblotting with the appropriate antibodies. […]

Another assay deals with T2, SHP2 (Homo sapiens, UniProt Q06124).
T2 construct: purchased SignalChem
T2 sequence (Q06124 1-593): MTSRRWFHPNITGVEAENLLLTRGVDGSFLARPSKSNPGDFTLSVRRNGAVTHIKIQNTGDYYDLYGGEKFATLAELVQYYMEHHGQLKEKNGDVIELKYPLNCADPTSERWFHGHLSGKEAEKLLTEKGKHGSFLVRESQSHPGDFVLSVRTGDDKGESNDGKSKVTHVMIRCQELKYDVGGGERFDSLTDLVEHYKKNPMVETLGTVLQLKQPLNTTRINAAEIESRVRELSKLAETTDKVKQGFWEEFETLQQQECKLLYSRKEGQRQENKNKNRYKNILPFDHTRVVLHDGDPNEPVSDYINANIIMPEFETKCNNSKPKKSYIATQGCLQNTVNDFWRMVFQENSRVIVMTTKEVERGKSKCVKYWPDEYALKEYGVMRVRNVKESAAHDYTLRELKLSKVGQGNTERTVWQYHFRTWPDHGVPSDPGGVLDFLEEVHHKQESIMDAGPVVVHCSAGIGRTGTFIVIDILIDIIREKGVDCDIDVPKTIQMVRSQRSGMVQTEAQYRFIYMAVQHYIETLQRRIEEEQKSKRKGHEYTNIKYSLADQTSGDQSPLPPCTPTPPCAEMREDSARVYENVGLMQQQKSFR
Put plainly: in vitro phosphatase assay, dephosphorylation of IRS1 peptides by active SHP2. Format: biochemical. The note with it: doubly versus singly phosphorylated IRS1 peptide; active SHP2 2.9 μM, peptide 2.6 mM, 37° C. An excerpt:
To assess whether serine phosphorylation (pS616) of the YMPMS motif (SEQ ID NO:13) promotes dephosphorylation of pY612 by SHP2, its dephosphorylation kinetics were examined. […] Decreased IRS1 pS616 has been correlated with increased pY608 in vivo (Bard-Chapeau et al., 2005), and therefore, aside from directly augmenting the IRS1-AP2M1 interaction, ERK1/2-dependent phosphorylation of IRS1 indirectly promotes AP2M1 binding through enhancing the dephosphorylation of IRS1 by SHP2. Consistent with a role of ERK1/2-dependent phosphorylation of IRS1 in IR endocytosis, expression of the RNAi-resistant IRS1 phospho-mimicking mutant (3SD), but not the phospho-deficient mutant (3SA), restored IR endocytosis in 293FT cells depleted of IRS1/2 (FIG. 1G and FIG. 6E).
Active SHP2 (2.9 μM, SignalChem) diluted in the phosphatase dilution buffer (50 mM imidazole, pH 7.2, 0.2% 2-mercaptoethanol, 65 ng/μl BSA) was incubated with IRS1 peptides (2.6 mM) at 37° C. for the indicated time points. Two microliters of reaction products were spotted onto 0.45 m nitrocellulose membrane (BioRad) and dried completely. The membrane was blocked with 5% nonfat milk in TBS for 1 h, and washed once with TBS-T (0.02% Tween 20). […] The membranes were scanned with the Odyssey Infrared Imaging System (LI-COR, Lincoln, Nebr.) for quantification.

Where no end group is shown, it is not given here. [ ]: non-standard residue; d: D form. pY = N[C@@H](Cc1ccc(OP(=O)(O)O)cc1)C(=O)O; pS = N[C@@H](COP(=O)(O)O)C(=O)O

For “pYMPMpS: doubly phosphorylated IRS1 peptide CHTDDGpYMPMpSPGVA (SEQ ID NO:16) (CHTDDG[pY]MPM[pS]PGVA)”, in the assay with AP2M1 (residues 160-435), the “binding to AP2M1” value is listed as “abolished AP2M1 binding”. The “dephosphorylation of pY612 by SHP2” value with SHP2 is listed as “promoted pY612 dephosphorylation by SHP2”.
